Reference: patent US20110243899A1 (NATIONAL UNIVERSITY CORPORATION CHIBA UNIVERSITY, published 2011)
Values belong to the molecule of their own block, whether it stands above or below them.

How the values were obtained:
[1] = target: Myc-tagged Frz8CRD (Frz8CRD-Myc), cysteine-rich domain of Frizzled 8 (Mus musculus (Mouse)) (UniProt Q61091); experiment: liquid-phase binding assay with immunoprecipitated Frz8CRD-Myc, Scatchard plot
[2] = target: T1, Myc-tagged Frz8CRD (Frz8CRD-Myc), cysteine-rich domain of Frizzled 8 (UniProt Q61091 28-151); experiment: radioligand saturation binding (Scatchard)
T1 chain: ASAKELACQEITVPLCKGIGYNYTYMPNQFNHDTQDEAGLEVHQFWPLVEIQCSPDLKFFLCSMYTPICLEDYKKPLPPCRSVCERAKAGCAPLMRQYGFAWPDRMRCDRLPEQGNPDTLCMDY

[3] = target: T2, Myc-tagged LRP6N (LRP6N-Myc), extracellular portion of LRP6 (UniProt O75581 20-1370); experiment: radioligand saturation binding (Scatchard); Kd2, low-affinity site
T2 chain: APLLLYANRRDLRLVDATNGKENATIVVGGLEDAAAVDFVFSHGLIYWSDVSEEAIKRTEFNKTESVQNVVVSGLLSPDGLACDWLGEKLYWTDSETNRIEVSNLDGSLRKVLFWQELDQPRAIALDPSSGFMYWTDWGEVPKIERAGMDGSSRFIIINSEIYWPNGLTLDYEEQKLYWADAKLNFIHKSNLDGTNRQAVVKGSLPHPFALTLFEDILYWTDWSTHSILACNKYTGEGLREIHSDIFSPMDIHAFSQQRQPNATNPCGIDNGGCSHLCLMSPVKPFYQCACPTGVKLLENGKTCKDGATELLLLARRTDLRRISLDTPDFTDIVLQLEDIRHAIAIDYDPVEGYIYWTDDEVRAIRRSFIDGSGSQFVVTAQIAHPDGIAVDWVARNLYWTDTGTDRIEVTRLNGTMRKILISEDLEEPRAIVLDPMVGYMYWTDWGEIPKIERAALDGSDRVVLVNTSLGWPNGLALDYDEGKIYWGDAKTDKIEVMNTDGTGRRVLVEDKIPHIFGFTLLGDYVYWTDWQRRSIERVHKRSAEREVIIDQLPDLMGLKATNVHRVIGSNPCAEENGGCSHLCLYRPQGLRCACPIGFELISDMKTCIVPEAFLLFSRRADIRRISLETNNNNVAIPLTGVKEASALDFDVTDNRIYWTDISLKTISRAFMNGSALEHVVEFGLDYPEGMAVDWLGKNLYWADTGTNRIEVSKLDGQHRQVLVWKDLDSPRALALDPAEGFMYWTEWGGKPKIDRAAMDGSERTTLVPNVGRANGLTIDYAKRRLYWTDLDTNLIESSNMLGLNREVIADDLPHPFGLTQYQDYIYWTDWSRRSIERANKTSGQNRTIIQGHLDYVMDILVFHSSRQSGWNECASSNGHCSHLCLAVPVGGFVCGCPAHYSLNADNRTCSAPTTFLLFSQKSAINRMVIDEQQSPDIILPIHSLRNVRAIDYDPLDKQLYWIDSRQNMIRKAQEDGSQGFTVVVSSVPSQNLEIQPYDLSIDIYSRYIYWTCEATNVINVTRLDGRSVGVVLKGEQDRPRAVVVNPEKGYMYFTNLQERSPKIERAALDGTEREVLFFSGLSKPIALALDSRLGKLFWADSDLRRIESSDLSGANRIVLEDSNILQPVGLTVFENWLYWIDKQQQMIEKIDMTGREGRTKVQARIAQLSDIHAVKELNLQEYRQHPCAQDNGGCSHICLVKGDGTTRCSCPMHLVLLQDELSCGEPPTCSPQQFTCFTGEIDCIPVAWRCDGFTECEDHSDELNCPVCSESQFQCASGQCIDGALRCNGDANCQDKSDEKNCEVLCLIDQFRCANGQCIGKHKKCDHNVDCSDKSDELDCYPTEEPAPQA

[4] = target: T2, Myc-tagged LRP6N (LRP6N-Myc), …; experiment: radioligand saturation binding (Scatchard); Kd1, high-affinity site
[5] = target: T3, Myc-tagged LRP6N (LRP6N-Myc), extracellular portion of LRP6 (UniProt O75581 20-1370, limits assumed); experiment: IP with anti-Myc antibody, immunoblot with anti-V5 antibody
T3 construct: extracellular domain; Produced in conditioned medium of 293 cells; not shown: Myc tag
T3 sequence (looked up): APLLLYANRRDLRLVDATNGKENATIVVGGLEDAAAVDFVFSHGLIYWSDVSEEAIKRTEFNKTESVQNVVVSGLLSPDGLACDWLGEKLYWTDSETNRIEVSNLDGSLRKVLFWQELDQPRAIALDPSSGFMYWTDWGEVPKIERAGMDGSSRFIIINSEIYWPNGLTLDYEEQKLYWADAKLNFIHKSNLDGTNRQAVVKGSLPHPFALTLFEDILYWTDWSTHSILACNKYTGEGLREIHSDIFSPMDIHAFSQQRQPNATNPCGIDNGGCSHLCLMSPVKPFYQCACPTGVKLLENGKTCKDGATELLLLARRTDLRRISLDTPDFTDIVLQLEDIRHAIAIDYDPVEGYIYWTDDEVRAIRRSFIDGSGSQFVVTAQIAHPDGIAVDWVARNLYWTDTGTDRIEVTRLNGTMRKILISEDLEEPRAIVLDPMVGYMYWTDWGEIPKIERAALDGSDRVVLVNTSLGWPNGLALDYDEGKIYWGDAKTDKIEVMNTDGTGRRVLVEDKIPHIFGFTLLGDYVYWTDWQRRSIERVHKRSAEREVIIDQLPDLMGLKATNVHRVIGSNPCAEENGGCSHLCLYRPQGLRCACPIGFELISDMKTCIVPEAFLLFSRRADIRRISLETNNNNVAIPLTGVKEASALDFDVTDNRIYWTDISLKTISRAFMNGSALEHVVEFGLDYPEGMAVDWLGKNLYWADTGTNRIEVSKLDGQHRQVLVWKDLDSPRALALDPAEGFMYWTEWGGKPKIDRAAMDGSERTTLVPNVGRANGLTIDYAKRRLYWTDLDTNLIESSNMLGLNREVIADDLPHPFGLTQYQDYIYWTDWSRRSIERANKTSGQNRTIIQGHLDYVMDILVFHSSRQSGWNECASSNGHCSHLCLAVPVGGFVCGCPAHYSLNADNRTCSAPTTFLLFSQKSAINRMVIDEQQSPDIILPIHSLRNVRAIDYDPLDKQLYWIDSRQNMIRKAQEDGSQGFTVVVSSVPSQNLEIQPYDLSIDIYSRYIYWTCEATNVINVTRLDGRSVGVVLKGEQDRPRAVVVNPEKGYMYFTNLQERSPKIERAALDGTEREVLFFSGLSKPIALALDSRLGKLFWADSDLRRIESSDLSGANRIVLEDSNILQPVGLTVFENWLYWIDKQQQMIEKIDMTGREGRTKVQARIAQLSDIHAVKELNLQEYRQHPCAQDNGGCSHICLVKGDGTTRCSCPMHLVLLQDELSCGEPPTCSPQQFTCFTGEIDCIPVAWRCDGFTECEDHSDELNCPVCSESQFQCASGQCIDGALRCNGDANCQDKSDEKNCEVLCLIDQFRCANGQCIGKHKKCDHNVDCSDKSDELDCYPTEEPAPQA
Experimental: The interaction was assessed by allowing LRP6N-Myc to react with each V5-tagged IGFBP, and performing immunoprecipitation (IP) with an anti-Myc antibody and subsequent immunoblotting (IB) with an anti-V5 antibody (upper panel), and immunoprecipitation (IP) with an anti-V5 antibody and subsequent immunoblotting (IB) with an anti-V5 antibody (lower panel). In the figure, IGFBP-1, IGFBP-2, IGFBP-3, IGFBP-4, IGFBP-5, and IGFBP-6 are represented by BP1, BP2, BP3, BP4, BP5, and BP6, respectively.

Molecule: ^125I-labelled IGFBP-4
Kd [1]: 25 nM

B1: ^125I-labelled IGFBP-4 (other)
chain: DEAIHCPPCSEEKLARCRPPVGCEELVREPGCGCCATCALGLGMPCGVYTPRCGSGLRCYPPRGVEKPLHTLMHGQGVCMELAEIEAIQESLQPSDKDEGDHPNNSFSPCSAHDRRCLQKHFAKIRDRSTSGGKMKVNGAPREDARPVPQGSCQSELHRALERLAASQSRTHEDLYIIPIPNCDRNGNFHPKQCHPALDGQRGKCWCVDRKTGVKLPGGLEPKGELDCHQLADSFRE
Kd [2]: 2.5 nM
Kd [3]: 6.9 nM
Kd [4]: 0.17 nM

Next, values leading:

binding result [5]: no binding
B2: IGFBP-3 (V5-tagged) (other, mouse, UniProt P47878 28-292, looked up)
chain: GAGAVGAGPVVRCEPCDARALSQCAPPPTAPACTELVREPGCGCCLTCALREGDACGVYTERCGTGLRCQPRPAEQYPLRALLNGRGFCANASAAGSLSTYLPSQPAPGNISESEEEHNAGSVESQVVPSTHRVTDSKFHPLHAKMDVIKKGHARDSQRYKVDYESQSTDTQNFSSESKRETEYGPCRREMEDTLNHLKFLNVLSPRGVHIPNCDKKGFYKKKQCRPSKGRKRGFCWCVDKYGQPLPGYDTKGKDDVHCLSVQSQ
notes: V5-tagged in the IP/western; not shown: V5 tag

binding result [5]: no binding
B3: IGFBP-5 (V5-tagged) (other, mouse, UniProt Q07079 20-271, looked up)
chain: LGSFVHCEPCDEKALSMCPPSPLGCELVKEPGCGCCMTCALAEGQSCGVYTERCAQGLRCLPRQDEEKPLHALLHGRGVCLNEKSYGEQTKIERDSREHEEPTTSEMAEETYSPKVFRPKHTRISELKAEAVKKDRRKKLTQSKFVGGAENTAHPRVIPAPEMRQESEQGPCRRHMEASLQEFKASPRMVPRAVYLPNCDRKGFYKRKQCKPSRGRKRGICWCVDKYGMKLPGMEYVDGDFQCHAFDSSNVE
notes: as for B2
